The values below come from patent US20170356903, “OLIGONUCLEOTIDE PROBES AND USES THEREOF” (Caris Science, Inc., published 2017).

For this data set, the target named is Argonaute-2 (hAgo2) (Homo sapiens, UniProt Q9UKV8 Q9UKV8:1-859). Briefly: EMSA; DNA cariMir co-migrates with Ago2-miR complex. The following applies: tags: expressed in sf9 insect cells, endogenous insect miRs co-purify; label: fluorescein. On the procedure:
Recombinant hAgo2 (Creative Biomart) was preloaded with synthetic miR guide in cleavage buffer (150 mM NaCl, 5 mM MgCl₂, 2.5% glycerol, 0.05% Tween-20, 10 mM Tris-HCl, pH 7.4) for 10-20 min at room temperature, followed by addition of target cariMir. Reactions were stopped by addition of gel loading buffer and immediately resolved by non-denaturing PAGE using 10% TBE gels (Life Technologies). Gels were stained with SYBR Green I and imaged with a PXi gel imager (Syngene). Gel densitometric analysis was performed using Image J and data were plotted in Prism 6 (GraphPad).
When cariMirs were mixed with recombinant Ago2 pre-loaded with synthetic miRs, cariMirs were cleaved producing the expected 5′ and 3′ cleavage products (see FIG. 14B), consistent with miR-guided Ago2 endonucleolytic action subsequent to specific hybridization of cariMir and miR within Ago2. […] Various components of the method are shown in the lanes of the gel as indicated above the gel. In the rightmost lane on the gel image (labeled “miR+Ago2+cariMir”), all components are added to allow potential Ago-mediated cleavage of the cariMir to occur (see FIG. 14A). The amounts of the various components in the reaction mixture are indicated to the left of the gel. […]

Argonaute-2 (hAgo2), sequence (Q9UKV8 whole entry, one chain of several): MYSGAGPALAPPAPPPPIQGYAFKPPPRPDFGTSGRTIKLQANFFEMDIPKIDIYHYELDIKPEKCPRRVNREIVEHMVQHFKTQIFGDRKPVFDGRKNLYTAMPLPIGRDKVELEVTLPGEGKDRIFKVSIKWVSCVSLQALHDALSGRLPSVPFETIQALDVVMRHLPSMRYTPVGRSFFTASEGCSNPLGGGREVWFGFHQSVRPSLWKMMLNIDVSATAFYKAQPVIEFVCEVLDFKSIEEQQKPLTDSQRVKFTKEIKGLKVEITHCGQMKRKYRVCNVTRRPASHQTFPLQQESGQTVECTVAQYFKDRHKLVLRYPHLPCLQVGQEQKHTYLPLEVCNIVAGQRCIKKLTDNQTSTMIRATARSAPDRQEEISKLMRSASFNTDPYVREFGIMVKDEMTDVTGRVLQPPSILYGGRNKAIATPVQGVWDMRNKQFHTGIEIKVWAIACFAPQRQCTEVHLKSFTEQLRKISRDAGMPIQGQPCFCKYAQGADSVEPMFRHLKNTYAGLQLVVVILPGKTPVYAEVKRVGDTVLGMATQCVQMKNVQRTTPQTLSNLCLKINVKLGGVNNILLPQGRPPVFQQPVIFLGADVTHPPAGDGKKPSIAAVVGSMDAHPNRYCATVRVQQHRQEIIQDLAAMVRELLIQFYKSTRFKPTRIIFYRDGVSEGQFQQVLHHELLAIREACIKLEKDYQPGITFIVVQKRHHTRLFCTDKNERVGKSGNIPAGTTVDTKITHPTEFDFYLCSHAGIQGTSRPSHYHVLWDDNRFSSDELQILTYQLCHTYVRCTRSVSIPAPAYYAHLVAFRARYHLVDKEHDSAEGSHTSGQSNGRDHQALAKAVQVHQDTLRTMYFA

B1: miR guide ; cariMir target (ssRNA ; ssDNA)
RNA: UAGAGGUACGUGCUGAGGCUU
DNA: CTAGCATGACTGCAGTACGTCACTGCAGGCCTCAGCACGTACCTCTATAACCGCCCTGTCTCTTATACACATCTGACGCTGCCGACGA
modifications: 5'-phosphate, internal fluorescein-dT
On to B1, for which the binding result is recorded as “binds”.
